This is an account of results in the Human Domainome abundance scans (Beltran et al. 2025).

± gives the uncertainty stated by the source.

First the molecules themselves.
B1: Mineralocorticoid receptor, residues 600 to 675; numbered along this chain, P08235 (parent)
chain: SKICLVCGDEASGCHYGVVTCGSCKVFFKRAVEGQHNYLCAGRNDCIIDKIRRKNCPACRLQKCLQAGMNLGARKS

Variants of B1 are the subject of the data set. The experiment in a line: abundance fitness (aPCA) (normalised: wild type 0, dead -1); higher = more abundant; growth selection in yeast, the domain comes from the species named. Particulars: Homo sapiens.
In the case of SKICLVCGDEASGCHYGVVTCGSCKVFFKRAVEGQHNYLCAGRNDCIIDKIRDKNCPACRLQKCLQAGMNLGARKS, the abundance fitness was -0.024 ± 0.35.

As to SKICLVCGDEASGCHYGVVTCGSCKVFFKRAVEGQHNYLCAGRNDCIIDKIRWKNCPACRLQKCLQAGMNLGARKS, the abundance fitness is -0.035 ± 0.053. On to SKICLVCGDEASGCHYGVVTCGSCKVFFKRAVEGQHNYLCAGRNDCIIDKIRGKNCPACRLQKCLQAGMNLGARKS, for which the abundance fitness was -0.045 ± 0.043. In the case of SKICLVCGDEASGCHYGVVTCGSCKVFFKRAVEGQHNYLCAGRNDCIIDKIRNKNCPACRLQKCLQAGMNLGARKS, the abundance fitness was -0.075 ± 0.29. Consider SKICLVCGDEASGCHYGVVTCGSCKVFFKRAVEGQHNYLCAGRNDCIIDKIREKNCPACRLQKCLQAGMNLGARKS, for which the abundance fitness was 0.087 ± 0.056. As for SKICLVCGDEASGCHYGVVTCGSCKVFFKRAVEGQHNYLCAGRNDCIIDKIRLKNCPACRLQKCLQAGMNLGARKS, the abundance fitness was -0.098 ± 0.076. SKICLVCGDEASGCHYGVVTCGSCKVFFKRAVEGQHNYLCAGRNDCIIRKIRRKNCPACRLQKCLQAGMNLGARKS: the abundance fitness was -0.287 ± 0.029. Regarding SKICLVCGDEASGCHYGVVTCGSCKVFFKRAVEGQHNYLCAGRNDCIIMKIRRKNCPACRLQKCLQAGMNLGARKS, the abundance fitness was -0.3 ± 0.079. To SKICLVCGDEASGCHYGVVTCGSCKVFFKRAVEGQHNYLCAGRNDCIIYKIRRKNCPACRLQKCLQAGMNLGARKS belongs -0.211 ± 0.048. To SKICLVCGDEASGCHYGVVTCGSCKVFFKRAVEGQHNYLCAGRNDCIIPKIRRKNCPACRLQKCLQAGMNLGARKS belongs -0.327 ± 0.049; to SKICLVCGDEASGCHYGVVTCGSCKVFFKRAVEGQHNYLCAGRNDCIIWKIRRKNCPACRLQKCLQAGMNLGARKS, -0.258 ± 0.038; to SKICLVCGDEASGCHYGVVTCGSCKVFFKRAVEGQHNYLCAGRNDCIIFKIRRKNCPACRLQKCLQAGMNLGARKS, -0.251 ± 0.038. As for SKICLVCGDEASGCHYGVVTCGSCKVFFKRAVEGQHNYLCAGRNDCIILKIRRKNCPACRLQKCLQAGMNLGARKS, the abundance fitness is -0.221 ± 0.039.

Turning to SKICLVCGDEASGCHYGVVTCGSCKVFFKRAVEGQHNYLCAGRNDCIIVKIRRKNCPACRLQKCLQAGMNLGARKS, the abundance fitness was -0.219 ± 0.039. Take SKICLVCGDEASGCHYGVVTCGSCKVFFKRAVEGQHNYLCAGRNDCIIHKIRRKNCPACRLQKCLQAGMNLGARKS: the abundance fitness was -0.276 ± 0.054. SKICLVCGDEASGCHYGVVTCGSCKVFFKRAVEGQHNYLCAGRNDCIINKIRRKNCPACRLQKCLQAGMNLGARKS: the abundance fitness was -0.054 ± 0.043. Take SKICLVCGDEASGCHYGVVTCGSCKVFFKRAVEGQHNYLCAGRNDCIIKKIRRKNCPACRLQKCLQAGMNLGARKS: the abundance fitness was -0.167 ± 0.049.

Regarding SKICLVCGDEASGCHYGVVTCGSCKVFFKRAVEGQHNYLCAGRNDCIISKIRRKNCPACRLQKCLQAGMNLGARKS, the abundance fitness is -0.041 ± 0.028. As to SKICLVCGDEASGCHYGVVTCGSCKVFFKRAVEGQHNYLCAGRNDCIIIKIRRKNCPACRLQKCLQAGMNLGARKS, the abundance fitness was -0.274 ± 0.047.

With SKICLVCGDEASGCHYGVVTCGSCKVFFKRAVEGQHNYLCAGRNDCIIDKICRKNCPACRLQKCLQAGMNLGARKS, the abundance fitness was -0.043 ± 0.065. Take SKICLVCGDEASGCHYGVVTCGSCKVFFKRAVEGQHNYLCAGRNDCIIDKIWRKNCPACRLQKCLQAGMNLGARKS: the abundance fitness was -0.052 ± 0.057. Regarding SKICLVCGDEASGCHYGVVTCGSCKVFFKRAVEGQHNYLCAGRNDCIIDKIMRKNCPACRLQKCLQAGMNLGARKS, the abundance fitness is -0.131 ± 0.1.

Take SKICLVCGDEASGCHYGVVTCGSCKVFFKRAVEGQHNYLCAGRNDCIIDKIVRKNCPACRLQKCLQAGMNLGARKS: the abundance fitness was -0.114 ± 0.057. On to SKICLVCGDEASGCHYGVVTCGSCKVFFKRAVEGQHNYLCAGRNDCIIDKIHRKNCPACRLQKCLQAGMNLGARKS, for which the abundance fitness was -0.055 ± 0.11. To SKICLVCGDEASGCHYGVVTCGSCKVFFKRAVEGQHNYLCAGRNDCIIDKIPRKNCPACRLQKCLQAGMNLGARKS belongs -0.081 ± 0.06.

For SKICLVCGDEASGCHYGVVTCGSCKVFFKRAVEGQHNYLCAGRNDCIIDKISRKNCPACRLQKCLQAGMNLGARKS, the abundance fitness is -0.04 ± 0.043. To SKICLVCGDEASGCHYGVVTCGSCKVFFKRAVEGQHNYLCAGRNDCIIDKILRKNCPACRLQKCLQAGMNLGARKS belongs -0.149 ± 0.062; to SKICLVCGDEASGCHYGVVTCGSCKVFFKRAVEGQHNYLCAGRNDCIIDKIGRKNCPACRLQKCLQAGMNLGARKS, -0.027 ± 0.039.

As to SKICLVCGDEASGCHYGVVTCGSCKVFFKRAVEGQHNYLCAGRNDCIIDKIKRKNCPACRLQKCLQAGMNLGARKS, the abundance fitness was -0.056 ± 0.075. On to SKICLVCGDEASGCHYGVVTCGSCKVFFKRAVEGQHNYLCAGRNDCIIDKIYRKNCPACRLQKCLQAGMNLGARKS, for which the abundance fitness was -0.234 ± 0.11. On to SKICLVCGDEASGCHYGVVTCGSCKVFFKRAVEGQHNYLCAGRNDCIIDKIFRKNCPACRLQKCLQAGMNLGARKS, for which the abundance fitness is -0.14 ± 0.097. On to SKICLVCGDEASGCHYGVVTCGSCKVFFKRAVEGQHNYLCAGRNDCIIDKIIRKNCPACRLQKCLQAGMNLGARKS, for which the abundance fitness was 0.049 ± 0.069.

In the case of SKICLVCGDEASGCHYGVVTCGSCKVFFKRAVEGQHNYLCAGRNDCIIDKIQRKNCPACRLQKCLQAGMNLGARKS, the abundance fitness was determined as 0.027 ± 0.059.

SKICLVCGDEASGCHYGVVTCGSCKVFFKRAVEGQHNYLCAGRNDCIIDKIDRKNCPACRLQKCLQAGMNLGARKS: the abundance fitness was -0.072 ± 0.092. Turning to SKICLVCGDEASGCHYGVVTCGSCKVFFKRAVEGQHNYLCAGRNDCIIDKITRKNCPACRLQKCLQAGMNLGARKS, the abundance fitness was -0.04 ± 0.054. On to SKICLVCGDEASGCHYGVVTCGSCKVFFKRAVEGQHNYLCAGRNDCIIDKIARKNCPACRLQKCLQAGMNLGARKS, for which the abundance fitness was -0.034 ± 0.043.
